Experimental findings from IntAct's records for PubMed 31552791 are described below.

To fix the notation:
B1: Ras-related protein Rab-38 (Homo sapiens), P57729 (parent)
chain: MQAPHKEHLYKLLVIGDLGVGKTSIIKRYVHQNFSSHYRATIGVDFALKVLHWDPETVVRLQLWDIAGQERFGNMTRVYYREAMGAFIVFDVTRPATFEAVAKWKNDLDSKLSLPNGKPVSVVLLANKCDQGKDVLMNNGLKMDQFCKEHGFVGWFETSAKENINIDEASRCLVKHILANECDLMESIEPDVVKPHLTSTKVASCSGCAKS

In the assay the parent is B1. To be noted: with lrrk2_human LRRK2, Q5S007.
lrrk2_human LRRK2, Q5S007, sequence (Q5S007 whole entry): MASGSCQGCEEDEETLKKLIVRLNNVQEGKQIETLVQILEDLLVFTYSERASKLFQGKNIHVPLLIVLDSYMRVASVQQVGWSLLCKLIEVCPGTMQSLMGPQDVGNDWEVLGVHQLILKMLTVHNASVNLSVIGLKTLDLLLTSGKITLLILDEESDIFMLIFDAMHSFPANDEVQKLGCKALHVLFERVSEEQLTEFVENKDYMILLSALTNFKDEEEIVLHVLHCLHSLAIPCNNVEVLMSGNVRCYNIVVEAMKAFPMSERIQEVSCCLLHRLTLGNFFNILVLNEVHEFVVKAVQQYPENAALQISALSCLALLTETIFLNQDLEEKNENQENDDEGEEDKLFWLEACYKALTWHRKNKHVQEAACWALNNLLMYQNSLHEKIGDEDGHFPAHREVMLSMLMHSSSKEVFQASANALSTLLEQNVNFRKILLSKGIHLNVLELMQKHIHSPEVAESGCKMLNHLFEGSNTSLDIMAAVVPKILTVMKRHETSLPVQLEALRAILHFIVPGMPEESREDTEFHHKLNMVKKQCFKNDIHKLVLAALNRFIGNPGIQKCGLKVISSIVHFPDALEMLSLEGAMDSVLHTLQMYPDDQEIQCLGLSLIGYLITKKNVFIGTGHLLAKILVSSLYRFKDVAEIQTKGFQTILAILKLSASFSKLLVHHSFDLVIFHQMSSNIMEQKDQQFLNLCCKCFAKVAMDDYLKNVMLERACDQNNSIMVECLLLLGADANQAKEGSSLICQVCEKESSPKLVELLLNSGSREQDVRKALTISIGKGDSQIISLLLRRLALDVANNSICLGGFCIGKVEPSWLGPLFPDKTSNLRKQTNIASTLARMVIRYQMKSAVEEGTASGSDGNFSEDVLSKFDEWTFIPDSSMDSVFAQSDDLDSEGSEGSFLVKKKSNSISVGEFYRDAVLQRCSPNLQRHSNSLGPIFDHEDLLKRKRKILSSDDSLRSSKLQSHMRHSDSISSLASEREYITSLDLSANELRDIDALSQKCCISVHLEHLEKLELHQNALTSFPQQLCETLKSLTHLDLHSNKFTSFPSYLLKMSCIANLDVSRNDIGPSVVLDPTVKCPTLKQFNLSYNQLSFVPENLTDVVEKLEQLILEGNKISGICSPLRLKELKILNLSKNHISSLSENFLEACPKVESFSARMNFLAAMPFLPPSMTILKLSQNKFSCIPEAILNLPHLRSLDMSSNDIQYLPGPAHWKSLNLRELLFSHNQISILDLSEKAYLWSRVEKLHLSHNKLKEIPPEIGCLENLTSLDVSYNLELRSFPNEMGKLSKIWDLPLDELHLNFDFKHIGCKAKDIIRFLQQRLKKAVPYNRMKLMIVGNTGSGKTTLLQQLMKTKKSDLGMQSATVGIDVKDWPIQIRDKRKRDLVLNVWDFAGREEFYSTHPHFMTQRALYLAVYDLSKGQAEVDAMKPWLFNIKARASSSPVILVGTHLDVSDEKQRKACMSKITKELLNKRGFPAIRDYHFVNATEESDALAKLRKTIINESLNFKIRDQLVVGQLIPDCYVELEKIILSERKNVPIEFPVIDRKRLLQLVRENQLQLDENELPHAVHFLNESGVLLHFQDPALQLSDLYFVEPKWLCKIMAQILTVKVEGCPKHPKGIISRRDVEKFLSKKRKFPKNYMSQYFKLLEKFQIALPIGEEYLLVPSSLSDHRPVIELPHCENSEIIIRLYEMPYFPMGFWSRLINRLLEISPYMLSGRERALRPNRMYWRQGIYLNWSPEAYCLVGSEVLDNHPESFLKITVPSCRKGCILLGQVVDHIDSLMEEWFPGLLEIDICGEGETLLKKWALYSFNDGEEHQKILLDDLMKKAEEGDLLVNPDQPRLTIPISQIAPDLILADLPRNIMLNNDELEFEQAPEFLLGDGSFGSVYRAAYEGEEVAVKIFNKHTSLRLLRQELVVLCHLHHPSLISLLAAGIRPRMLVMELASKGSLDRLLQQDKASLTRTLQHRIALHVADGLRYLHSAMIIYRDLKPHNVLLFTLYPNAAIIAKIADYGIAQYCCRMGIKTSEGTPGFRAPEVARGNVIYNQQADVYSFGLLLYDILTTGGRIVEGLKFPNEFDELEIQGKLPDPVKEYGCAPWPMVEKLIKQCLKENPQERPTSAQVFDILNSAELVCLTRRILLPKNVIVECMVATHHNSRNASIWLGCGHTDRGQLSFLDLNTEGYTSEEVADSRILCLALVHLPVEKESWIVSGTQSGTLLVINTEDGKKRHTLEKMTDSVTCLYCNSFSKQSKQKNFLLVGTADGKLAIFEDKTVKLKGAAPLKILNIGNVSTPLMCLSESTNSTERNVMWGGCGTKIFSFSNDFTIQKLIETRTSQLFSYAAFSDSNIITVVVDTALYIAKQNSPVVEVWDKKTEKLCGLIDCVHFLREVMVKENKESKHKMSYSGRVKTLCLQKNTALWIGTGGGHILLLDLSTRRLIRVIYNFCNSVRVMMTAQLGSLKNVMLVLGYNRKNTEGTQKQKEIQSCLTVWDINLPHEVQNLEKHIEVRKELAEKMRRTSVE
For MQAPHKEHLYKLLVIGDLGVGKTSIIKRYVHQNFSSHYQATIGVDFALKVLHWDPETVVRLQLWDIAGQERFGNMTRVYYREAMGAFIVFDVTRPATFEAVAKWKNDLDSKLSLPNGKPVSVVLLANKCDQGKDVLMNNGLKMDQFCKEHGFVGWFETSAKENINIDEASRCLVKHILANECDLMESIEPDVVKPHLTSTKVASCSGCAKS [R39Q], the “effect of a mutation on the interaction” value is recorded as “decreasing interaction strength”. The entry for MQAPHKEHLYKLLVIGDLGVGKTSIIKRYVHQNFSSHYRATIGVDFALKVLHWDPETVVRLQLWDIAGQERFGNMTQVYYQEAMGAFIVFDVTRPATFEAVAKWKNDLDSKLSLPNGKPVSVVLLANKCDQGKDVLMNNGLKMDQFCKEHGFVGWFETSAKENINIDEASRCLVKHILANECDLMESIEPDVVKPHLTSTKVASCSGCAKS [R77Q;R81Q] is “with no effect”; for MQAPHKEHLYKLLVIGDLGVGKTSIIKRYVHQNFSSHYRATAGVDFALKVLHWDPETVVRLQLWDIAGQERFGNMTRVYYREAMGAFIVFDVTRPATFEAVAKWKNDLDSKLSLPNGKPVSVVLLANKCDQGKDVLMNNGLKMDQFCKEHGFVGWFETSAKENINIDEASRCLVKHILANECDLMESIEPDVVKPHLTSTKVASCSGCAKS [I42A] it is “with no effect”. MQAPHKEHLYKLLVIGDLGVGKTSIIKRYVHQNFSSHYRATEGVDFALKVLHWDPETVVRLQLWDIAGQERFGNMTRVYYREAMGAFIVFDVTRPATFEAVAKWKNDLDSKLSLPNGKPVSVVLLANKCDQGKDVLMNNGLKMDQFCKEHGFVGWFETSAKENINIDEASRCLVKHILANECDLMESIEPDVVKPHLTSTKVASCSGCAKS [I42E]: the “effect of a mutation on the interaction” value is recorded as “with no effect”.
